Measured values published in paper doi:10.1101/2020.09.22.308338 (bioRxiv, 2020).

Molecular target: stabilized homotrimeric spike protein of SARS-CoV-2 (SARS-CoV-2 (Wuhan-Hu-1 sequence, strain …, UniProt P0DTC2, stabilised))
Test: bead-based multiplex ACE2 competition assay

B1: nanobody NM1230 (VHH)
VHH: QVQLVESGGGLVRPGGSLRLSCVGSGFTFSGYAMNWYRQAPGKALELVAGISNAGDLTHYEEPMKGRVAISRANDKNTVYLQMDDLKPEDTAVYRCHAPGVRVGTGERKDVWGQGAQVTVSS
- binding result: binds
